Test results taken from patent publication US9739779B2, “Methods of screening for Janus kinase 3 interacting compounds” (priority 2013, dated 2017).
Values belong to the molecule of their own block, whether it stands above or below them.

How the values were obtained:
P-Villin = target: T1, P-Villin (Homo sapiens, UniProt P09327); assay: Multiplate ELISA binding of GST-Jak3 and truncated Jak3 fusion proteins to P-Villin
T1 construct: made in house; host or cells: E. coli TKX1 (pGEX2T vector)
T1 sequence (P09327 1-827): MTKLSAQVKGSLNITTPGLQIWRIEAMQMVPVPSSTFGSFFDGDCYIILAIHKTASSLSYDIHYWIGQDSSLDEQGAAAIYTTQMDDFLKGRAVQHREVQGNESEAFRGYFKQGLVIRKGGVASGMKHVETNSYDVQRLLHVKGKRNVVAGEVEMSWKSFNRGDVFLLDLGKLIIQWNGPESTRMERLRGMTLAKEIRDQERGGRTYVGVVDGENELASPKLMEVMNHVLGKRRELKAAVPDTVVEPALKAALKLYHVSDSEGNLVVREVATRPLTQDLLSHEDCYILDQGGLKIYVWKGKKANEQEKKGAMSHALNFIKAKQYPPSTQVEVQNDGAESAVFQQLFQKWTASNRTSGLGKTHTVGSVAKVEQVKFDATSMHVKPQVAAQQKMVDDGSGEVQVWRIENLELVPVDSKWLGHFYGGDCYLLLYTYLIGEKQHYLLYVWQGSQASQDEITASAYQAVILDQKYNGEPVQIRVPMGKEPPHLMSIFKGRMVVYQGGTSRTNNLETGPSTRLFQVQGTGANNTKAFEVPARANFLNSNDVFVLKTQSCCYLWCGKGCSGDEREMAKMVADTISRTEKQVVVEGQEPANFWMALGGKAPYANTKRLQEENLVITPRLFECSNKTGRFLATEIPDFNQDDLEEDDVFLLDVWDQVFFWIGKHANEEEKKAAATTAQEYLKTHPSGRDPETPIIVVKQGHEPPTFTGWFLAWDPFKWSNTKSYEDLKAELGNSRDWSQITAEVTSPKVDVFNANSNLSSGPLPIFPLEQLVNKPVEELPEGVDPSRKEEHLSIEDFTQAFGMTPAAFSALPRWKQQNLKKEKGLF
Method: Absorbance values for wells containing P-Villin contacted with GST alone were used as control, and data presented on the ordinate axis represent absorbance values after subtraction of control values.
(§1) To determine the ability of Jak3 to interact with natural compounds including biomolecules, binding studies were performed in a multiplate using the cytoskeletal protein, Villin, known in the art to be a substrate for P-Jak3. Multiplates pre-coated with P-Villin were contacted with increasing concentrations of GST-P-Jak3 fusion protein (test samples) or GST alone (control sample). Binding levels were measured using GST antibody as the primary binding partner, horse radish peroxidase conjugated antibody as the secondary binding partner and 3,3′,5,5′-tetramethylbenzidine as the colorimetric substrate. Raw absorbance data for the control samples were subtracted from the absorbance for the test samples to obtain the corrected absorbance values.
To determine whether the kinase domains of Jak3 are critical for Villin binding, recombinant GST-truncated-Jak3 fusion proteins shown in FIGS. 2C-2E were expressed in BL21 (for non-phosphorylated proteins) or TKX1 (for phosphorylated proteins) cells, and purified. Multiplates pre-coated with P-Villin were contacted with these GST-tagged recombinant truncated-Jak3 or with GST-tagged recombinant WT-Jak3, and binding measured as described supra.

[1] = target: T2, GST-P-Jak3 fusion protein (Mus musculus, UniProt Q62137); assay: Multiplate ELISA binding of P-Villin to GST-P-Jak3
T2 construct: made in house; host or cells: E. coli TKX1 (pGEX-4T vector)
T2 sequence (Q62137 with tags, fused parts or gaps): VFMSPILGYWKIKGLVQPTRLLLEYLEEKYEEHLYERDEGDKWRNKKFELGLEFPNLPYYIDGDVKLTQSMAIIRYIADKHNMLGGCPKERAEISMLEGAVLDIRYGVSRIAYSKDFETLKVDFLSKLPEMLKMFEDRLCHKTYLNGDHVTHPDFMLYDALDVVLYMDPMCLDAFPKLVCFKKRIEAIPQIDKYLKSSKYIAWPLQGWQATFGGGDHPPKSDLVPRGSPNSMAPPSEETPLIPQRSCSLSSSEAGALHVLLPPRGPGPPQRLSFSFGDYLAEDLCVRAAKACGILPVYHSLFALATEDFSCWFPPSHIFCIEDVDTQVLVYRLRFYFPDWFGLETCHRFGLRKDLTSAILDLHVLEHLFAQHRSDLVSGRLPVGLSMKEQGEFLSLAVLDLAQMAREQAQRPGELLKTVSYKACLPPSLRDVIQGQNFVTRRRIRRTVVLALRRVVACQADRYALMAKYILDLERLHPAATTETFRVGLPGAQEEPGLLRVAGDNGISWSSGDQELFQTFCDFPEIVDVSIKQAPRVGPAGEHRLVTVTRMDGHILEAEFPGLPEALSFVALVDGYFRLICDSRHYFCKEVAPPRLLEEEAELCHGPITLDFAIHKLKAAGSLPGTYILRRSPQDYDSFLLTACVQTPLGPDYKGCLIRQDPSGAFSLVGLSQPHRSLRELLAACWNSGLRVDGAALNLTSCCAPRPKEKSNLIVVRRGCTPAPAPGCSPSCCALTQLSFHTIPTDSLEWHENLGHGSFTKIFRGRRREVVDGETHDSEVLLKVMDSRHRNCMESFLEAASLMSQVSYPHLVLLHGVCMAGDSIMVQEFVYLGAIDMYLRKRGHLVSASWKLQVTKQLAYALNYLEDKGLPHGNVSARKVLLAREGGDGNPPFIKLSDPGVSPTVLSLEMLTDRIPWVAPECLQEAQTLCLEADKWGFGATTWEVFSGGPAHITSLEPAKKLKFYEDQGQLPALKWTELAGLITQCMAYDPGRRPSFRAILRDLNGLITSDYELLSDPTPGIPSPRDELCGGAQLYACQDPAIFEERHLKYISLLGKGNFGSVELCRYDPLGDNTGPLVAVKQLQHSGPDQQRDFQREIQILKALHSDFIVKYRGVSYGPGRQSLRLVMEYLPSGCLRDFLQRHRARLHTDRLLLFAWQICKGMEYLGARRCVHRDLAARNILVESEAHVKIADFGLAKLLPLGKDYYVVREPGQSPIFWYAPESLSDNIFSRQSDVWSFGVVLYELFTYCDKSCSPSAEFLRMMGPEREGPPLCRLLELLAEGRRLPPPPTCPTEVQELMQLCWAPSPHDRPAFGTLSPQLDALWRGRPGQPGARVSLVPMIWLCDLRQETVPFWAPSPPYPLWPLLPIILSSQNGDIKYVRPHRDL
Method: GST is the reporter protein and the primary binding partner is a GST antibody.
as §1

Kd (P-Villin; plates pre-coated with P-Villin, read-out: dissociation constant (Kd)): 0.023 µM
Molecule: P-WT-Jak3: phosphorylated GST-WT-Jak3 fusion protein (SEQ ID NO: 11) expressed in TKX1

level of binding to P-Villin (P-Villin; FIG. 8A, GST-alone control subtracted): relatively lower level of binding
Molecule: WT-Jak3: non-phosphorylated GST-WT-Jak3 fusion protein (SEQ ID NO. 7) expressed in BL21

Kd ([1]; plates pre-coated with P-Villin, P-Jak3 0-400 nM, GST control subtracted, read-out: dissociation constant (Kd)): 0.023 µM
Hill coefficient (h) ([1]; rearranged Hill equation plot): 3.7
B1: P-Villin: recombinant phosphorylated cytoskeletal protein Villin expressed in E. coli TKX1 (protein)
chain: MTKLSAQVKGSLNITTPGLQIWRIEAMQMVPVPSSTFGSFFDGDCYIILAIHKTASSLSYDIHYWIGQDSSLDEQGAAAIYTTQMDDFLKGRAVQHREVQGNESEAFRGYFKQGLVIRKGGVASGMKHVETNSYDVQRLLHVKGKRNVVAGEVEMSWKSFNRGDVFLLDLGKLIIQWNGPESTRMERLRGMTLAKEIRDQERGGRTYVGVVDGENELASPKLMEVMNHVLGKRRELKAAVPDTVVEPALKAALKLYHVSDSEGNLVVREVATRPLTQDLLSHEDCYILDQGGLKIYVWKGKKANEQEKKGAMSHALNFIKAKQYPPSTQVEVQNDGAESAVFQQLFQKWTASNRTSGLGKTHTVGSVAKVEQVKFDATSMHVKPQVAAQQKMVDDGSGEVQVWRIENLELVPVDSKWLGHFYGGDCYLLLYTYLIGEKQHYLLYVWQGSQASQDEITASAYQAVILDQKYNGEPVQIRVPMGKEPPHLMSIFKGRMVVYQGGTSRTNNLETGPSTRLFQVQGTGANNTKAFEVPARANFLNSNDVFVLKTQSCCYLWCGKGCSGDEREMAKMVADTISRTEKQVVVEGQEPANFWMALGGKAPYANTKRLQEENLVITPRLFECSNKTGRFLATEIPDFNQDDLEEDDVFLLDVWDQVFFWIGKHANEEEKKAAATTAQEYLKTHPSGRDPETPIIVVKQGHEPPTFTGWFLAWDPFKWSNTKSYEDLKAELGNSRDWSQITAEVTSPKVDVFNANSNLSSGPLPIFPLEQLVNKPVEELPEGVDPSRKEEHLSIEDFTQAFGMTPAAFSALPRWKQQNLKKEKGLF
